In the domain aggregation screens of Martell et al. (2025):

Experiment: soluble fraction after stress (log2 fold change); higher = more stays soluble; pooled small domains, quantitative proteomics
Settings: stress: 75 degC
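Also: 20 min heating vs room temperature control held 20 min.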

Row | Sequence | soluble fraction (log2)
1 | HMALSGTVQNFAGGIMILIFRPFKTGDYIEALGYFGKVSEVNIVSTKLRTFDNKTIILPNGALSNGNIQNY | -0.772
2 | HMALSSQQIKDMQSWYGTKADGIWGSKSTTAAGGRDAGAAYSLYSSNKGRYSSYTDYMSYGGG | 0.341
3 | HMALSTRERMSFVLEVLKEKEFIPFVDLFSPEEGRAGVVVTFLALMELMKDSLIEIVQTKNFGEIHVRARL | -0.316
4 | HMALTQEQLGQRLQDARKSVALTQQEVAEDLGLSRESLAQIEAGSRSVNSLEIVRLARLYGRSLSSILLE | -0.893
5 | HMALYSEQVSEIEKALMSLPPKYQLVMLLLYAEDLKYEQIAEILDEPIGTVKTKIHRARKILKERF | -0.147
6 | HMAMDSGELEAIVDRLISEHPDDWAALTAGDDRERKKKSGFFVGEVMKATRGQADGRAVIELLASRSA | -0.0771
7 | HMAMDYTVVHSDRRTIAIQIQRDGRVVVRAPYAATAEDIRRVVDSHRDWVEKTVRRQQEQLAAS | -0.985
8 | HMAMNITQRHQEILAVIKQEKHITVSEISKLLGVSEVTIRKDFNYLEEKNLIYRHHGGASLNN | -2.78
9 | HMAMPQPVARALHRLGQDISAARRMRRLSQEDLAQRIGTSLSTVRRMEDGYPGTALHTFLRALHML | -0.552
10 | HMAMSDFDALSNRISTLSQGRASAVRMKDGIVSLVLDIGGLSAEERKAMTAAIEGEGRGYPSVTQVRILET | -0.15
11 | HMANAGKFDSDMGEKINFPGNRVSLTPSELEAARELAAIMGDRFFSQLIPTTSKVTVTEMLQSLK | 0.745
12 | HMANGTVKWFNTTKGFGFIAPETGGKDVFVHISAVERSGLTGLADDQKVTFDVEAGRDGRESAVNLAL | 0.0695
13 | HMANKTVPNVSGKTVAEARAIIENQSLQVGEEKEEYSDSVAEGYIIRTNPTAGSQKKEQSKIDLVVSKG | 0.128
14 | HMANLDSLIKKVGQYAKDKQSISVDGIKKDLSIDKDMVKEALAELLKIGVVDKPDEAGQYKVIM | 0.51
15 | HMANPMFAEIKKVQKQLNEMGYQAGPADGLWGNKTENAVKLLLSDNNLKWDGTFDQNEIKIIEEIFLSND | -0.241
16 | HMANPRLEYFLSNITPDWNEFSPELKNQLLIENADPYKLEQYILQVSPDMYIEEQNAPGTVRQMAGDITG | 0.137
17 | HMANSANARKSLVSKLIAGGKIASQSDLVKALKKQGIVVTQGTASRDLEDIGAIRVRNSEGEIVYALT | 0.0457
18 | HMANSDEEVLNKISTKAPTFNELINKIKEFDDTKEINDIWLDVYRYYITDEEYKEIAKKVITGLTYTNQ | -0.386
19 | HMANSLLVTAQAGGQKLFNFLKRSLHAENNEIHRWIRTGQVRINKKRTKAFDIVHENDEIRIPPFALNR | -0.444
20 | HMANSREIPKLAGIEQEEAVKQLLDLDLKPVIEEITDDDTDAGDVVRTDPAAGEHVAVDTEITVFISIG | -0.987
21 | HMANVQLAKNLKTLRKKYNYTQQDVSTFLNITRQAYSHYEQALREPDLNTLVHLSRFYQVTLDELI | -4.33
22 | HMANYHDIAADLRSKINHGFYEEEKKLPKQSELAADYQTSRVTIQKALNILQMEGIIYGKKGTGTFIRDSY | -0.32
23 | HMANYTVNAYNNGGTGGSVNMRSGPSTNDGIVVRVPHGATVTGTKSGTWSYMTYNTYTGYMMSVYLDEQS | -1.57
24 | HMAPAPYLVKVTANKLNIRSGPGTNYKIQGAITDKGTYTIVDTQGRWGKLKSGAGWIYLNYTKK | -1.98
25 | HMAPASADQLIDQLNEKVKAKDDKGVAALLTAAQTKMAELAQKDPKEAQAYVAKLQQWMQSNSENIKAALK | 0.439
26 | HMAPAYELTEEETKIIEILKANENIDLNELKSQAALSGKKWDKSMKNLAKYNLTKVTVDGDAKTVAYLA | 0.164

Row | Sequence | soluble fraction (log2)
27 | HMAPELSGEKLWDAQDVAMFLRVKPTTVWSYVSRDGFPAPVSQAGRAGMWSEPLVVQWYLSRPG | 0.154
28 | HMAPEPFILSVDADGKYYIDDLEKTKQEILIYATALYQEKPTTDFLVRGDKSAAYNDVLQAMVVLKE | 0.325
29 | HMAPETALQILEQIQINPKVTMTDLANLTGYSRRWVAQTMKQLQELNVIKRVGSTKTGYWEIIA | -0.576
30 | HMAPGSKAEIPEDLMKVINKDPKMKAFVATLNKANIMAISFRLSTAKKPETRERRFNLILETLKRGEKF | -3.16
31 | HMAPKVTLNETETAIFEKMQQEKQLLLSELRTHFDISNKLWDTSIKTLTKNQLLTVSKEADLLWIKL | -1.34
32 | HMAPLAVIFPEPWRGMIAPEKLEGLTQALSLNPRPGYQHDPTRRYGVSLDGLDVRFTIDGDTLTVVEVVT | -1.64
33 | HMAPNKLQQQEVWTKALPLLQQMIMTIRQIDAAGGDSSPERELLEETAARFDETLDVERFLP | -0.339
34 | HMAPPPLAGAREALREQIRRGSLSARRGFDAYADALGLPAGTRGAHPIFAALQRLDYPQALRLLDQEPT | -0.0614
35 | HMAPQVKIPNLVDVSQRQAEAILNSYGLKVGHLIYKPDLAKDAVLGFMFNGRSLKAGDELAKGSSIDLILG | -0.277
36 | HMAPRDKADKYVAAGIAEELVPILQKVGYYLVTDLKDVKAQKIQQQIGEIIKKYKLDIEKPSVQDIEGWN | -0.192
37 | HMAQDIEQLEKAVSFYTRMDPAAAALSITNLDQKTAVNILMRMKDKQASAVLESMTAERSSELIDSIARK | 0.0292
38 | HMAQELPYEKVTMNGKMFYVYHVKAGEGLYLISRTFSVNADEILKFNPSIENGLKSGQVLYIPIK | -1.23
39 | HMAQISDESALYDLVKSVLDANPQSIADYKAGRDRALGFLMGQAMKLSKGKANPPVINKILKEMLDK | 0.161
40 | HMAQKQLYIAGTDYTKNSTSQLVLAYFPAKPSSIKIFFDGIYQNKDKWSLFGKTIIFGLPISSNAVEVHYE | -4.34
41 | HMAQLPADLSKVKSSQISDQQLTQIAQQAKNSGQSEQAVLQELKQRGLPDTEIQALGARISGLMQ | 0.211
42 | HMAQLVVTVDKLNKRTAIPVTLSDKSSNDSVVEKGFRFEGFPFVNTATNGKKWYKDREGFFYWAGGLMEEA | 0.0903
43 | HMAQMDDPEMVLHIYNKMIQQRLFDTAVGYSYLKDLQEYLQSIPFIRKEDIFPIPVQHPQVEESLRKAK | -0.689
44 | HMAQTSAELIIEYLKRNDGFMELTDKSPADEIYETFGISKKNFKMAVGSLYKNRVIEIGQNGIRLVE | -0.426
45 | HMAQTTKWREIHKVKRKETIFGIARDNGLTVDELIEANPEMTKPGYELKKGDFIYIPFPSKNIDTNAGTQT | 0.498
46 | HMARAESYGDIARLEQLLDEHANIAALDPGKLPAVRQQIWTLMRAARMDHDLGLAERPEDDSFDDMLLHV | 0.208
47 | HMARAPIYPDGLTQREVEVLSLVAAGKTDREIAEELFIALRTVTTHVGNILNKIGAANRTEAAGYATRQGL | -1.7
48 | HMARAVSPLEAIPGVGPRRRQQLLKQLGGMQEVARAGVEDLSRVPGISRALAQQIYDAFHGD | -0.287
49 | HMARDPWDVLGVAKTATNDEIKRAFKRQAMMTHPDKQGGSEERFKEVNEAYSHIKDEQSRAKYQNSQ | 0.158
50 | HMARDSYNGVQRTISTLLGQGNYDRAYDVAVGARGQMSKQQWSDVAKRIYEVSGIKIDDSVKY | -0.113
51 | HMARRSRADAVRNREALIDAAKAAFTEAGPDVSLEEIARRAGVGIGTLYRHFPTRDAVIEAVYR | -0.185
52 | HMARRTPPPTVSELNALLRVAAPHIQRVILLGIYTGARIGPSELFSLKWDDVDLTRGVIGIRL | -0.0659

Row | Sequence | soluble fraction (log2)
53 | HMARTDVKLREVAQELLRMGLLEESLRPHLYRTALASMERLNATLEPLDLIARADEIRGLVFLAVRH | -2.73
54 | HMARVSGIDLPKNKRGYIGLTYIYGIGRSTALHILNSAGVDPEKKVHEWNDDETTAIRNIINAEIKVEGAL | -0.631
55 | HMASAKTVAQSGTYKFAKTTAIKSSASDAASTVGTYYKGNTVNYNAKVTTNGQTWLRYTSYSGAQYYVKVS | -3.66
56 | HMASANMPDVLGLDAETAKQVLAAKGFTKVEIYPMESSEPANRVVRQSEDRDTMVALTKEILLGVSNGS | 0.0531
57 | HMASENISYSQFINQVKNSMVESVSIEADGKTISGKYKSGSSFVTYGLNDPKLVDDLLSNNVEIL | 0.143
58 | HMASGLITEEQAKSKALAHAGLSASQVNFIWVKQDWEDGRRVYEVEFYTDDYQEYDYEIDARTGEILSFDY | -1.84
59 | HMASIGTATVTADNLRLRSEAGTGAETLTMAPKGAEVTVEEDAGDGWYKVTYGDTEGYMSGEWLKITLA | -0.0355
60 | HMASLIGEEKALQIALEHAGVALENVAYSQVKLENDDGRWEYDTEFYSGSKEYDYEIDASTGEILGYDHD | 0.0872
61 | HMASLSITVNGETRRAAPGSIADLVRAIGLDPAKVAVERNGEIAPRSTLADVALADGDVLEIVHFVG | -0.359
62 | HMASMEDILAEAKTKFQEGDLFKSVNEGIQGTHKLTLPLRIKESRIVDASGAAVYREGIWATVDK | 0.166
63 | HMASMNPVWLEFPNIPWGSAGWRMGWGEDYMRRWAKWYISLAEVERQSYKSDWPEPQEWEGFYAFMEHGT | -1.85
64 | HMASPEIAFLNKFYQLSNTVNEISVMKIVKNYQEKYQQRISIEQMAKTLKTMGYAVRNNIISNIEEAPV | -1.53
65 | HMASPRVWKDASSGRTLTGEFVELTKDAVKVRRANGDVVSLPLSRLTEEDITFAKGASETGGA | 0.198
66 | HMASVLTAKLSEREVDVLNLLARGFTNADIAAQLHLSEGTVRNHVSTIFAKLDVNDRTQAAVIAIRHGL | -2.52
67 | HMASVLTGMLGRVTGELAPKGIVMVGNETWTAVSEDDSVIRIGEPVEVRSVEGLILTVFRRID | -2.66
68 | HMATAADLLQSATGVPRSDALLLLAKLLGVAKERLIAHPETVVSEKTQATFSDWIERVRGGFPTTYLLG | -0.393
69 | HMATAEETTPLWARNRLSHAIFGPGSVTGEDERSFEVAFDNGDTLNFSKKSAHLYFTAMSSR | -0.169
70 | HMATARPPPPPESRVEVLFDGRWYAGTVVGGALDEHRATVFFDADRLSQVINFAETGIRVLGT | -0.123
71 | HMATEYIIPTVTNKKLEEAIGIAQLRGFEISVDEYKPSDIDEGTVLEQSPAAGTNAKQGDTISVTVSSG | 0.476
72 | HMATFTPYLVRITASVLNIRKGPGTTYAVTGQIKDRGVYTIVEQKGNWGRLKSGAGWISLSYTKK | -3.25
73 | HMATPAFEMYKVRRGDTPAGLAKEWGFPDMASFYRINPDARSDWKRGLQLVKPMNEMAVLQATA | -0.302
74 | HMATPKYMELVRWINEQIESKNLVPGQKMYSENTLKEMFGVSRQTVRHAIGVLENEGVIRRIQGSGTYIN | -1.51
75 | HMATPSTGQVSVVRLNLRVSPSISSPVVTRLTQGDTVKILAASDDGRWYKVATADGRTGWLYTIYITAE | -1.34
76 | HMATQTGTVKWFNEGKGFGFIAPDDGSKDLFAHFSEIKTTGFKTLAEAQRVEFEVTEGRKGLQASNIK | 0.442
